Reference: US20250213627A1 (BAYLOR COLLEGE OF MEDICINE, published 2025)

Legend:
[1] = molecular target: mKv1.3 channel stably expressed in mouse L929 fibroblasts (mouse, UniProt P16390 1-528); test: cell-based or functional assay
[2] = molecular target: Kv1.3 potassium channel (species not stated for this experiment); test: cell-based or functional assay

Sequence of mKv1.3 channel stably expressed in mouse L929 fibroblasts (P16390 whole entry): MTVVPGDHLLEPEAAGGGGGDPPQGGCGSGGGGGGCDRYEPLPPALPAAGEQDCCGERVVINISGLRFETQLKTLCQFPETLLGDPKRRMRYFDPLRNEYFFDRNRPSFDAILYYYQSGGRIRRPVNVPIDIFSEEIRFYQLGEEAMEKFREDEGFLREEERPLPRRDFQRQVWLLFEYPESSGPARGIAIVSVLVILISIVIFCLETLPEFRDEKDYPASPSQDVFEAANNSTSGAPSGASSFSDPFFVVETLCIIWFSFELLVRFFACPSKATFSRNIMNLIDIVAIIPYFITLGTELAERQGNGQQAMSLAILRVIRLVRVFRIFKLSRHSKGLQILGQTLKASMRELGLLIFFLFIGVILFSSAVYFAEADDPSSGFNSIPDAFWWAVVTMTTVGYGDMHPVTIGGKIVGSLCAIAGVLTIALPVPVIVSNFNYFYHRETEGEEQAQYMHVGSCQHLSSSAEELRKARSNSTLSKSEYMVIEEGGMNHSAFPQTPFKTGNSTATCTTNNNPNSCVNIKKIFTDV

Question: What does the source list for RSCIDTIPKSRCTAFKCKHSIKYRLSFCRKTCGTCA (3 disulfide bonds (oxidatively folded synthetic peptide)) [synthetic ShK-235]?
Answer: IC50 of block of mKv1.3 currents (whole-cell patch-clamp, L929 cells) [1]: 69.3 pM; IC50 of block of Kv1.3 channel function (whole-cell patch-clamp) [2]: 62 pM
